What was measured:
AncSZ = assay: phosphorylation enrichment, bacterial display (enrichment ratio); higher = better substrate or ligand; peptides without Tyr show the background
EPHB1 = EPHB1 (UniProt P54762); assay: as above
EPHB2 = EPHB2 (UniProt P29323); assay: as above
FGFR1 = FGFR1 (UniProt P11362); assay: as above
FGFR3 = FGFR3 (UniProt P22607); assay: as above
Fer (mouse) = assay: as above
Fes = Fes (UniProt P07332); assay: as above
Fyn = Fyn (UniProt P06241); assay: as above
Hck = Hck (UniProt P08631); assay: as above
Jak2 = Jak2 (UniProt O60674); assay: as above
Chain of Jak2 (O60674 whole entry, looked up): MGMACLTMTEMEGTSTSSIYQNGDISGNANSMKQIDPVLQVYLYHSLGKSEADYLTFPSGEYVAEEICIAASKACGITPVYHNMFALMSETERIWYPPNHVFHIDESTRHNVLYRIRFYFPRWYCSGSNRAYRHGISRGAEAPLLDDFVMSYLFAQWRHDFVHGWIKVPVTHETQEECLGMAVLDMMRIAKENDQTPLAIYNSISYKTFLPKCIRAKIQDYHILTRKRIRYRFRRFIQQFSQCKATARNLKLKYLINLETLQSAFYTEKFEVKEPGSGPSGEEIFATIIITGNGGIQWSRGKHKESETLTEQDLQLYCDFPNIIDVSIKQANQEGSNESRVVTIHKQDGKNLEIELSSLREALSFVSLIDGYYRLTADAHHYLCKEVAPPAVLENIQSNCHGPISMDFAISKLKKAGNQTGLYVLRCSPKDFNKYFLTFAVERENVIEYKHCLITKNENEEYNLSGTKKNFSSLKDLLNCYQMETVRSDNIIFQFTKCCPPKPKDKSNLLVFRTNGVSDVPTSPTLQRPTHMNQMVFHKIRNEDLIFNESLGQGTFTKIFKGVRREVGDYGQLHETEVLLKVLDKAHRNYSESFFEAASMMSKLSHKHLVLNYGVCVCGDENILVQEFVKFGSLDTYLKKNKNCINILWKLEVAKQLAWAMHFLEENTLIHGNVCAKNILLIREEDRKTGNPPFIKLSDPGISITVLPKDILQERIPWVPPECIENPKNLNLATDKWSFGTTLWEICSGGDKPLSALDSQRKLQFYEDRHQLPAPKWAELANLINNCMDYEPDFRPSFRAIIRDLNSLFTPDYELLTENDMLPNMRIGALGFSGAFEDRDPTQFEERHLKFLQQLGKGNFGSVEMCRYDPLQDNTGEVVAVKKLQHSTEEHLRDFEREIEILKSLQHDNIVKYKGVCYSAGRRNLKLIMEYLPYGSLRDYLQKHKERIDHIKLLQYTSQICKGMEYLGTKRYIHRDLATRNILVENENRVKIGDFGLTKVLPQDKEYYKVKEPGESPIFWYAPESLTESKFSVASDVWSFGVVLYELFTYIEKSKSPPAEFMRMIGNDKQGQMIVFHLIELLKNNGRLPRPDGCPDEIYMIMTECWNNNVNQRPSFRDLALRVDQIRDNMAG

MERTK = MERTK (UniProt Q12866); assay: as above
c-Abl (mouse) = assay: as above
c-Src = assay: as above
Grb2 SH2 = Grb2 SH2 (UniProt P62993); assay: SH2 binding enrichment of the phosphorylated peptide, bacterial display (enrichment ratio); higher = better substrate or ligand; peptides without Tyr show the background
Chain of Grb2 SH2 (P62993 whole entry, looked up): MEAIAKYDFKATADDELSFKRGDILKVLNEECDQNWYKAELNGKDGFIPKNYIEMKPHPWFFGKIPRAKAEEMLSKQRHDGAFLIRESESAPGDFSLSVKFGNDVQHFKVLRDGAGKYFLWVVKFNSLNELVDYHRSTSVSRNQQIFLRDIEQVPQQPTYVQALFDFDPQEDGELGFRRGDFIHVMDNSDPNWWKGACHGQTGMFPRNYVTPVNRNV

SHP2-C SH2 = assay: as above
c-Src SH2 = assay: as above
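For SH2 binding enrichment of the phosphorylated peptide, bacterial display in this document: peptide library displayed on the E. coli surface as eCPX fusions, selected cells deep-sequenced, score is each peptide's frequency after selection divided by its frequency in the input.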
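For phosphorylation enrichment, bacterial display in this document: 11-residue human phosphosite peptides and single-mutation variants displayed on the E. coli surface, counted by deep sequencing, each peptide's frequency after selection divided by its frequency in the unselected input library; frequency after pTyr selection over input frequency; kinase dosed for 20-30% of maximal phosphorylation in three min.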

Chain of EPHB1 (P54762 whole entry, looked up): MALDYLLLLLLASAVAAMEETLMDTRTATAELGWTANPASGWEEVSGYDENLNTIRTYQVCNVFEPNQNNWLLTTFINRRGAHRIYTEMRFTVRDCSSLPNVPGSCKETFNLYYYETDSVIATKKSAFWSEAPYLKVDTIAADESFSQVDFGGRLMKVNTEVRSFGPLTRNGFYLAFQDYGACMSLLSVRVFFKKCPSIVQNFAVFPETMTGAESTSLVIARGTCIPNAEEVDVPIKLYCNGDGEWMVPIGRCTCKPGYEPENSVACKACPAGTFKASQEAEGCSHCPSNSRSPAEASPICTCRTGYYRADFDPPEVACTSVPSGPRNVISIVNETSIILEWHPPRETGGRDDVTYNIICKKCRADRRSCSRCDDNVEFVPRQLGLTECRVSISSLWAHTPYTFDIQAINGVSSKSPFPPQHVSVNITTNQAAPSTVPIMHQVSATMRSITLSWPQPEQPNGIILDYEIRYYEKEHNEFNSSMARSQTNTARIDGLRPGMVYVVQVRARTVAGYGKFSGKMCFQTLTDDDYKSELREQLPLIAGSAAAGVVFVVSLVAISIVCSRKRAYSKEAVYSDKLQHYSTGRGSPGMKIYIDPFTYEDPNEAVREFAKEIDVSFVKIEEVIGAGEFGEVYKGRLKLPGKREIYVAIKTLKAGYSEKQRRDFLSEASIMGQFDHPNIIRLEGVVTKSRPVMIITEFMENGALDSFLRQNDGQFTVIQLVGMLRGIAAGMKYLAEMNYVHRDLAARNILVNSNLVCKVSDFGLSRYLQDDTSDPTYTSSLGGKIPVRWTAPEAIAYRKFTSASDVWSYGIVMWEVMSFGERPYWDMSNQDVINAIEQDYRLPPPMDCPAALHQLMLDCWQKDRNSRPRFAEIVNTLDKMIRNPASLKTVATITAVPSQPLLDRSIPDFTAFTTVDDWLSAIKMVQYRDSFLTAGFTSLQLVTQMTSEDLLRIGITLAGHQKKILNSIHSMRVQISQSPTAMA
Chain of Fes (P07332 whole entry, looked up): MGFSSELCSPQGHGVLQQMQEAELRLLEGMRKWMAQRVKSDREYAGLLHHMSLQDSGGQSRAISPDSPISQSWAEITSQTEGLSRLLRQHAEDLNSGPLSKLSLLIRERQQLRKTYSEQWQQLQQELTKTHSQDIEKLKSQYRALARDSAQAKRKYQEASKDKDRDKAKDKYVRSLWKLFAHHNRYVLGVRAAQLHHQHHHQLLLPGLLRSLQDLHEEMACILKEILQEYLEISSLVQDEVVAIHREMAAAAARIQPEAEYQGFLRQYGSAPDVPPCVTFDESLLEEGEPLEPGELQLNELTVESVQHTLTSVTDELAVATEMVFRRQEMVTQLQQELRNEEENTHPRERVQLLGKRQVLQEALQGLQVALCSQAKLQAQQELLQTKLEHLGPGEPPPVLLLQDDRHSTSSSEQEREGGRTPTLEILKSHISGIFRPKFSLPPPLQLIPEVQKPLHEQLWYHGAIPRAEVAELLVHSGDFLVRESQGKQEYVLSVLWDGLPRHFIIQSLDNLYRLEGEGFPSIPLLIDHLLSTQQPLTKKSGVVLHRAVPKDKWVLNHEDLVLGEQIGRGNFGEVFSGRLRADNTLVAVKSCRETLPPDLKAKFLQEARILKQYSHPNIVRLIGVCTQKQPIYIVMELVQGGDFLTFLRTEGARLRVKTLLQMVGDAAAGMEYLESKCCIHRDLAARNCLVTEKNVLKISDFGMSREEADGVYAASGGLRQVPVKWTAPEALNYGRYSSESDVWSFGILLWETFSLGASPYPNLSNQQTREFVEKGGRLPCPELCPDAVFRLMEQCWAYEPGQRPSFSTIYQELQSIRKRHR
Chain of FGFR3 (P22607 whole entry, looked up): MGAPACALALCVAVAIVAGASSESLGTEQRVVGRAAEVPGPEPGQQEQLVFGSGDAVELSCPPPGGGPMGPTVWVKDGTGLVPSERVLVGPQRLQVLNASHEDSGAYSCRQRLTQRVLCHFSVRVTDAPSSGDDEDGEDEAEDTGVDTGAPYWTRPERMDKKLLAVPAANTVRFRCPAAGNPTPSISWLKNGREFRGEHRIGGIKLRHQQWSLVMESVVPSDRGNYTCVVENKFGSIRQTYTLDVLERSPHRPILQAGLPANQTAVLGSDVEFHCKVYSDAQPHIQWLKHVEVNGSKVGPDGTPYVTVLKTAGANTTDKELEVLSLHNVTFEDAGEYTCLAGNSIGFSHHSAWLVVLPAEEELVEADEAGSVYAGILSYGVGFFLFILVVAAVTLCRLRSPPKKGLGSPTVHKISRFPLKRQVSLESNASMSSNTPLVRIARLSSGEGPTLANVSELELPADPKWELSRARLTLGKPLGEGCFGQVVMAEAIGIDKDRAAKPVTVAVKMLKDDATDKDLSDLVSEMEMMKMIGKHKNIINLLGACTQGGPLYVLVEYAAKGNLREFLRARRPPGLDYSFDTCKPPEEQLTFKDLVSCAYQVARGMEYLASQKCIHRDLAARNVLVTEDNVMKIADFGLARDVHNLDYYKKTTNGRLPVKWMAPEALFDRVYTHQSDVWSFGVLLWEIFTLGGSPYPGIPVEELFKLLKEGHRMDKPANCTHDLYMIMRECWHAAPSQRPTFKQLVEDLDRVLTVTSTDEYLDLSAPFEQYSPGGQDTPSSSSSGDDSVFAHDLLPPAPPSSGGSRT
Chain of EPHB2 (P29323 whole entry, looked up): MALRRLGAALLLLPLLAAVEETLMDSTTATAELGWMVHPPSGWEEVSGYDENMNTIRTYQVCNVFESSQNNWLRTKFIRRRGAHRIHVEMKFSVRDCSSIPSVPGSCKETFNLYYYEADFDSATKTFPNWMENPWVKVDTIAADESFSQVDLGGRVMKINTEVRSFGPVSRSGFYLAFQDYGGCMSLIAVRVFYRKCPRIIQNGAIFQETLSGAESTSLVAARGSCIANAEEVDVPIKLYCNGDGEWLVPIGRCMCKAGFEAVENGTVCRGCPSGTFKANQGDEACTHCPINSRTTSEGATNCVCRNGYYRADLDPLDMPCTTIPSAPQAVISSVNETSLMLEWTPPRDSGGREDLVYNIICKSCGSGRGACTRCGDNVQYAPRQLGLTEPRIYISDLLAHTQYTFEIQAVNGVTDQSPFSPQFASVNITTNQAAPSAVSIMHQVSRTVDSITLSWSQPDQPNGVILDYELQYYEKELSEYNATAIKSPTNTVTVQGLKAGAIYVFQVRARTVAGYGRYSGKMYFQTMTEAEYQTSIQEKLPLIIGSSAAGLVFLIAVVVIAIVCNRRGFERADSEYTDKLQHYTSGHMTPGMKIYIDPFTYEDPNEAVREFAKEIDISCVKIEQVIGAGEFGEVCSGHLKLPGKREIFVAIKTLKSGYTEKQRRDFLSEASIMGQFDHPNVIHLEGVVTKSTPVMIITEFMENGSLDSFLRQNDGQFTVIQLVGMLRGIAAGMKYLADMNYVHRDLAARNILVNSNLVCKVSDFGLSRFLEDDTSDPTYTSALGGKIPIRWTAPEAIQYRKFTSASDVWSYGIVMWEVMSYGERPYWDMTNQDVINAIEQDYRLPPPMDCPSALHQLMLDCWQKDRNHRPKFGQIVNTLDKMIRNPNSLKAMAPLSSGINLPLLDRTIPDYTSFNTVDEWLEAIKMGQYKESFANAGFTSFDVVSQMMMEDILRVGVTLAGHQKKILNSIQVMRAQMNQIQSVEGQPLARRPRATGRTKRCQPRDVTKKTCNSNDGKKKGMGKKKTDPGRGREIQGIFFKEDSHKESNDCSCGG

Row | Sequence | phosphorylation enrichment (AncSZ) | phosphorylation enrichment (EPHB1) | phosphorylation enrichment (EPHB2) | phosphorylation enrichment (FGFR1) | phosphorylation enrichment (FGFR3) | phosphorylation enrichment (Fer (mouse)) | phosphorylation enrichment (Fes) | phosphorylation enrichment (Fyn) | phosphorylation enrichment (Hck) | phosphorylation enrichment (Jak2) | phosphorylation enrichment (MERTK) | phosphorylation enrichment (c-Abl (mouse)) | phosphorylation enrichment (c-Src) | SH2 binding enrichment (Grb2 SH2) | SH2 binding enrichment (SHP2-C SH2) | SH2 binding enrichment (c-Src SH2)
1 | LWQTIYNLEAE [TNNT2_Y251_S249T] | 1.56 | 1.3 | 0.894 | 1.15 | 1.13 | 0.855 | 2.22 | 10.9 | 5.88 | 1.73 | 0.735 | 1.21 | 8.82 | 1.03 | 0.773 | 0.823
2 | TESALYGCTVV [KIAA1804_Y724_L729V] | 1.18 | 0.783 | 0.833 | 0.517 | 0.802 | 5 | 1.43 | 5.73 | 4.37 | 1.17 | 1.83 | 0.888 | 4.43 | 0.685 | 0.657 | 0.336
3 | GFWPRYVKVGS [NOG_Y172_R167G] | 0.746 | 0.594 | 0.532 | 0.554 | 0.653 | 0.388 | 0.97 | 0.493 | 0.532 | 0.695 | 0.447 | 0.568 | 0.402 | 0.645 | 0.834 | 0.443
4 | RVDRDYVLKST [HTATIP2_Y111_A116T] | 0.961 | 0.492 | 0.659 | 0.526 | 0.529 | 0.511 | 0.823 | 0.65 | 0.578 | 0.436 | 0.487 | 0.369 | 0.388 | 1.01 | 0.843 | 0.436
5 | RESYKYLPSSL [CXXC1_Y218_F219L] | 1.09 | 0.571 | 0.616 | 1.21 | 0.821 | 0.546 | 1.17 | 0.59 | 0.762 | 1.11 | 0.859 | 1.25 | 0.993 | 1.1 | 0.791 | 0.582
6 | VRLTEYPCAGL | 0.638 | 0.456 | 0.457 | 0.396 | 0.523 | 0.381 | 0.781 | 0.358 | 0.428 | 0.673 | 0.367 | 0.527 | 0.398 | 0.932 | 0.76 | 0.572
7 | KGERGYPGTPG [COL4A1_Y348] | 0.384 | 0.336 | 0.372 | 0.354 | 0.406 | 0.399 | 0.433 | 0.311 | 0.38 | 0.359 | 0.356 | 0.42 | 0.419 | 0.832 | 0.77 | 0.482
8 | YSNKLHYQLEQ [PDPR_Y109_Y109H] | 1.12 | 0.498 | 0.439 | 0.435 | 0.592 | 0.461 | 0.782 | 0.568 | 0.535 | 0.757 | 0.484 | 0.495 | 0.553 | 0.98 | 0.54 | 0.606
9 | GESLTYVSTTF [C1orf162_Y120_A121V] | 0.954 | 0.532 | 0.563 | 0.508 | 0.62 | 0.512 | 1.07 | 0.569 | 0.621 | 0.691 | 0.538 | 0.494 | 0.664 | 0.843 | 0.712 | 0.519
10 | RRGTRYMSSRP [RPL21_Y13_F15S] | 0.439 | 0.481 | 0.499 | 0.551 | 0.633 | 0.578 | 0.473 | 0.772 | 0.621 | 0.699 | 0.57 | 0.527 | 0.947 | 0.964 | 0.533 | 0.489
11 | CHRQLYHKCTH [F12_Y58_Y53C] | 0.497 | 0.447 | 0.461 | 0.494 | 0.576 | 0.491 | 0.796 | 0.402 | 0.471 | 0.667 | 0.543 | 0.599 | 0.457 | 1.53 | 1.3 | 1.5
12 | YETDYYRKGGK [INSR_Y1190] | 0.668 | 0.41 | 0.419 | 0.522 | 0.492 | 0.392 | 0.864 | 0.398 | 0.469 | 0.83 | 0.427 | 0.752 | 0.338 | 0.675 | 0.676 | 0.622
13 | QYKGKYLAKHN [CASK_Y712_D710G] | 0.984 | 0.705 | 0.699 | 1.01 | 1.29 | 0.819 | 0.979 | 0.658 | 0.752 | 0.472 | 0.835 | 0.934 | 0.519 | 1.42 | 0.792 | 1.06
14 | VAVVDYVEPSP [TXNRD2_Y70] | 1.35 | 0.561 | 0.776 | 0.603 | 0.683 | 0.52 | 0.974 | 0.53 | 0.454 | 0.912 | 0.415 | 0.627 | 0.416 | 0.792 | 0.696 | 0.446
15 | AEMKRYAESSS [RAI14_Y869] | 0.607 | 0.45 | 0.394 | 0.467 | 0.441 | 0.372 | 0.778 | 0.471 | 0.403 | 0.582 | 0.336 | 0.483 | 0.382 | 0.875 | 0.903 | 0.448
16 | AAAAVYTFLPD [MYORG_Y36_M35V] | 1.48 | 3.68 | 2.45 | 12.4 | 10.6 | 1.85 | 1.2 | 8.32 | 6.52 | 0.979 | 9.47 | 1.12 | 7.02 | 0.882 | 0.79 | 1.92
17 | ENELTYYCCKK [CD59_Y86] | 1.57 | 0.505 | 0.97 | 2.21 | 1.22 | 0.779 | 0.955 | 1.72 | 2.47 | 1.77 | 1.08 | 1.26 | 2.74 | 0.953 | 0.82 | 0.483

Row | Sequence | phosphorylation enrichment (AncSZ) | phosphorylation enrichment (EPHB1) | phosphorylation enrichment (EPHB2) | phosphorylation enrichment (FGFR1) | phosphorylation enrichment (FGFR3) | phosphorylation enrichment (Fer (mouse)) | phosphorylation enrichment (Fes) | phosphorylation enrichment (Fyn) | phosphorylation enrichment (Hck) | phosphorylation enrichment (Jak2) | phosphorylation enrichment (MERTK) | phosphorylation enrichment (c-Abl (mouse)) | phosphorylation enrichment (c-Src) | SH2 binding enrichment (Grb2 SH2) | SH2 binding enrichment (SHP2-C SH2) | SH2 binding enrichment (c-Src SH2)
18 | LSDGPYSNPFE [EPOR_Y485_YF] | 1.47 | 0.547 | 0.628 | 0.491 | 0.614 | 0.822 | 1.16 | 1.77 | 0.843 | 0.862 | 0.534 | 0.701 | 0.856 | 0.82 | 0.486 | 1.91
19 | LAIERYVVVCK [RHO_Y136] | 1.83 | 0.938 | 1.09 | 0.766 | 1.21 | 1.32 | 2.33 | 0.597 | 0.862 | 1.9 | 0.732 | 1.51 | 0.859 | 0.674 | 0.679 | 0.476
20 | FGGLRYGFGVL [KRTAP20-2_Y13_YF] | 0.786 | 0.443 | 0.379 | 0.733 | 0.56 | 0.351 | 0.876 | 0.348 | 0.399 | 0.753 | 0.42 | 0.608 | 0.35 | 0.732 | 0.913 | 0.674
21 | SAEEDYIADAK [KCNT1_Y876_M877I] | 1.22 | 0.602 | 0.703 | 0.617 | 0.797 | 0.608 | 1.48 | 0.515 | 0.554 | 1.2 | 0.456 | 0.931 | 0.608 | 0.983 | 0.709 | 0.683
22 | VSGIPYSQPKQ [NEU1_Y251_G252S] | 0.467 | 0.234 | 0.4 | 0.389 | 0.443 | 0.467 | 0.474 | 0.398 | 0.358 | 0.943 | 0.326 | 0.416 | 0.388 | 0.751 | 0.646 | 0.617
23 | NTGYYYDLYGG [PTPN11_Y63_D61Y] | 1.73 | 11.3 | 10.6 | 13.9 | 11.3 | 3.4 | 1.25 | 5.76 | 6.15 | 4.73 | 8.78 | 0.971 | 4.67 | 1.33 | 1.56 | 5.74
24 | VVSLFYGTALF [OR10C1_Y251_M246V] | 1.25 | 0.698 | 0.812 | 0.566 | 0.804 | 1.1 | 1.43 | 1.94 | 1.42 | 1.61 | 0.7 | 1.21 | 1.97 | 0.713 | 0.516 | 0.353
25 | PAGSGYPAFLG [ATP6V1A_Y374_D371G_YF] | 1 | 0.634 | 1.17 | 0.737 | 0.794 | 0.512 | 1.13 | 0.478 | 0.626 | 0.687 | 0.469 | 0.869 | 0.735 | 0.828 | 0.778 | 0.538
26 | MCTVDYLLRLQ [RYR1_Y3921_I3916M] | 1.07 | 0.597 | 0.62 | 0.526 | 0.684 | 0.504 | 1.35 | 0.546 | 0.529 | 1.19 | 0.516 | 0.866 | 0.487 | 0.84 | 0.765 | 0.523
27 | EEESCYILHSS [PATJ_Y783] | 1.63 | 0.637 | 0.625 | 0.621 | 0.853 | 0.926 | 1.35 | 0.659 | 0.57 | 1.31 | 0.484 | 0.892 | 0.819 | 0.944 | 0.79 | 0.744
28 | CTTIQYNYMCN [TP53_Y234_H233Q] | 0.927 | 0.614 | 0.671 | 0.556 | 0.692 | 0.445 | 0.955 | 0.555 | 0.551 | 0.751 | 0.482 | 0.493 | 0.441 | 1.37 | 2.31 | 4.11
29 | KEIHAYRKLLE [LMNA_Y376_M371K] | 0.63 | 0.397 | 0.481 | 0.429 | 0.487 | 0.468 | 0.76 | 0.344 | 0.476 | 0.59 | 0.414 | 0.489 | 0.506 | 0.68 | 0.569 | 0.459
30 | FSPGSNERETF [NF1_Y2192_Y2192N] | 0.835 | 0.408 | 0.605 | 0.53 | 0.583 | 0.538 | 0.856 | 0.484 | 0.484 | 0.849 | 0.414 | 0.599 | 0.424 | 0.886 | 0.662 | 0.447
31 | ELAINYQEQAS [SLC9A9_Y591] | 0.923 | 0.526 | 0.469 | 0.522 | 0.674 | 0.524 | 0.869 | 0.539 | 0.643 | 0.832 | 0.416 | 0.504 | 0.403 | 0.905 | 0.556 | 0.536
32 | RAILNYIASKF [GSTA3_Y74_YF] | 1.84 | 0.534 | 0.86 | 1.08 | 0.861 | 0.994 | 1.73 | 0.66 | 0.854 | 1.29 | 1.7 | 1.96 | 1 | 0.927 | 0.611 | 0.461
33 | NAPNSYGRRPT [CDKN2A_Y44_I49T] | 0.784 | 0.452 | 0.281 | 0.343 | 0.499 | 0.38 | 0.717 | 0.402 | 0.424 | 1.11 | 0.593 | 0.79 | 0.528 | 0.599 | 0.615 | 0.567
